Test results as given in article PMC8247599 (Genes & Development, 2021).

Target: the molecule itself
Experiment: crystal structure

B1: Khc^855–941 (domain or fragment)
chain: not shown
binding result: binds
